Laboratory results published in the nanobody polyreactivity screen of Harvey et al. (2022).

Assay: yeast display, Sf9 membrane polyspecificity reagent, FACS + sequencing; frameworks hold sequencing errors
Method in brief: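 After 36–48 hours of galactose induction, yeast (Saccharomyces cerevisiae BJ5465) displaying a synthetic nanobody library were stained at 4 °C for 1 hour with 10% biotinylated, detergent-solubilized Sf9 membrane reagent. Streptavidin microbeads enriched the stained cells before FACS sorting into low and high (top ~1%) gates on anti-HA and streptavidin fluorescence. Each clone's polyreactivity label reflects its gate of origin.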

Sequence	polyreactivity (PSR sort gate)
QVQLVESGGGLVQAGGSLRLSCAASGSIFSYYVMGWYRQAPGKERELVAAITRSGGSTYYADSVKGRFTISRDNAKNTVYLQMNRLKPEDTAVYYCAATYSHRRGDYWGQGTQVTVSS	high polyreactivity
QVQLVESGGGLVQAGGSLRLSCAASGSIFSYYVMGWYRQAPGKERELVARINWSSTSTYYADSVKGRFTISRDNAKNTVYLQMNSLKPEDTAVYYCAAAKRYGRYYEYDYWGQGTQVTVSS	high polyreactivity
QVQLVESGGGLVQAGGSLRLSCAASGSIFTAYARGWYRQAPGKERELVAAISRSGGRTYYADSVKGRFTISRDNPKKTVYLQMNSLKPEDTAVYYCAARRRRYIANLYNYWGQGTQVTVSS	high polyreactivity
QVQLVESGGGLVQAGGSLRLSCAASGSIFTAYDMGWYRQAPGKERELVAAINVSAGTTYYADSVKGRFTISRDNAKNTVYLQMNSLKPEDTAVYYCAATFGGWGYVYVHYYYWGQGTQVTVSS	high polyreactivity
QVQLVESGGGLVQAGGSLRLSCAASGSIFTAYTMGWYRQAPGKERELVAAITERGGSTYYADSVKGRFTISRDNAKNTVYLQMNSMKPEDTAVYYCAASTLKDIYLWFRVDYWGQGTQVTVSS	low polyreactivity
QVQLVESGGGLVQAGGSLRLSCAASGSIFTDNVMGWYRQAPGKERELVAAITYSAASTYYADSVKGRFTISRDNAKNTVYLQMNSLKPEDTAVYYCATEYYIGVNYRGDYWGQGTQVTVSS	low polyreactivity
QVQLVESGGGLVQAGGSLRLSCAASGSIFTEYVMGWYRQAPGKERELVAAAITRGGSTNYADSVKGRFTISRDNAKNSVYLQMYCLKPEDTAVYYCNKDVWPVSRQLYTGKYDSWGQGTQVTVSS	low polyreactivity
QVQLVESGGGLVQAGGSLRLSCAASGSIFTFYAMGWYRQAPGKERELVATITISTGSTYYADSVKGRFTISRDNAKNTVYLQMNCLKPEDTAVYYCAARRRSAEYNYWGQGTQVTVSS	high polyreactivity
QVQLVESGGGLVQAGGSLRLSCAASGSIFTHNAMGWYRQAPGKERVLVAAISSGGSTNYADSVKGRFTISRDNAKNTVYLQMNSLKPEDTAVYYCAKSIDGWYWRRRRYDYWVQGTQVTVSS	low polyreactivity
QVQLVESGGGLVQAGGSLRLSCAASGSIFTIYAMGWYRQAPGKERELVAAITWSGGSTYYADSVKGRFTISRDNAKNTVYLQMNSLKPEDTAVYYCAAKYYGEMYYWGQGTQVTVSS	low polyreactivity
QVQLVESGGGLVQAGGSLRLSCAASGSIFTKYAMGWYRQAPGKERELVAGISRTTGSTYYADSVKGRFTISRDNAKNTVYLQMNSLKPEDTAVSYCNAVYGHGNYFRSEDDYWGQGTQVTVSS	high polyreactivity
QVQLVESGGGLVQAGGSLRLSCAASGSIFTLNAMGWYRQAPGKEREFVAAITWSGGSTYYADSVKGRFTISRDNAKNTVYLQMNSLKPEDTAVYYCNVEPVDRWYYKYDYWGQGTQVTVSS	low polyreactivity
QVQLVESGGGLVQAGGSLRLSCAASGSIFTLYAMGWNRQAPGQERELVAAITRSGGSTYYADSVKGRFTSSRDNAKNTVYLQMNSLKPEDTAVYYCAADKAPYSTEGDYWGQGTQVTVSS	high polyreactivity
QVQLVESGGGLVQAGGSLRLSCAASGSIFTLYARGWYREAPGKERELVAAITWTGGSTYYADSVKGRFTISRDNAKNTVYLQMNSLKPEDTAVYYCATDAYWQSNGAFYYVARHGGYWGQGTQVTVSS	low polyreactivity
QVQLVESGGGLVQAGGSLRLSCAASGSIFTNNAMGWYRQAPGKERELVAGISFRGSSTYADSVKGRFTISRDNAKNTVYLQMNSLKPEDTAVYYCAAEWFDLEDDYWGQGTQVTVSS	low polyreactivity
QVQLVESGGGLVQAGGSLRLSCAASGSIFTPNAMGGYRQAPGKERELVAAISSSSDRTYYADSVKGRFTISRDNAKNTVYLQMNSLKPEDTAVYYCAAYAQQRYYWGQGTQVTVSS	high polyreactivity
QVQLVESGGGLVQAGGSLRLSCAASGSIFTPNAMGWYRQAPGKERELVAAISSSSDRTSYADSVKGRFTISRDNAKYTVYLQMNSLKPEDTAVYYCAAYSQKRYYWGQGTQVTVSS	high polyreactivity
QVQLVESGGGLVQAGGSLRLSCAASGSIFTPYAMGWYRQAPGKERELVAAITQTGGITYYADSVKGRFTISRDNAKNTVYLQMNSLKPEDTAVYYCAADDYNPFSYSYGLEYWGQGTQVTVSS	low polyreactivity
QVQLVESGGGLVQAGGSLRLSCAASGSIFTPYAMVWYRQAPGQERELVAAITSGGSTYYADSVKGRFTISRDNAKNTVYLQMNSLKPEDTAVYYCARRVWNYLRRSWYDYWGQGTQVTVSS	high polyreactivity
QVQLVESGGGLVQAGGSLRLSCAASGSIFTRNTMGWYRQAPGKDRELVAAITWIGGRTYYADSVKGRFTISRDNAKNTVYLQMNSLKPEDTAVYYCAARSDPYWWQKYYYWGQGTQVTVSS	high polyreactivity
QVQLVESGGGLVQAGGSLRLSCAASGSIFTRYAMGWYRQAPGKERELVATISFIGSSTYYADSVKGRFTISRDNAKNTVYLQMNSLKPEDTAVYSCAATGYARQYEYRYDYWGQGTQVTVSS	low polyreactivity
QVQLVESGGGLVQAGGSLRLSCAASGSIFTRYAMGWYRQSPGKERELVAALSYRGGRTYYADSVKGRFTISRDNAKNTVYLQMNSLKPVDTAVYYCAAGYRFSYSPNEFYYWGQGTQVTVSS	high polyreactivity
QVQLVESGGGLVQAGGSLRLSCAASGSIFTSYAMGWYRQAPGTERELVAVITSSGSSTYYADSVKGRFTISRDNAKNTVYLQMNSMKPEDTAVYYCYGYYDAYGYWGQGTQVTVSS	low polyreactivity
QVQLVESGGGLVQAGGSLRLSCAASGSIFTSYVMGWYRQAPGKERELVAAINSGGRTYYADSVKGRFTISRDNAKNTVYLQMNSLKPEDTAVYYCATDLLYYQYYSEYDYWGQGTQVTVSS	high polyreactivity
QVQLVESGGGLVQAGGSLRLSCAASGSIFTTNAMGWYRQAPGKERELVAAISSRGTSTYYADSVKGRFTISRDNAKNTVYLQMNSLKPEDTAVYYCAADYVYASRHFEYWGQGTQVTVSS	high polyreactivity
QVQLVESGGGLVQAGGSLRLSCAASGSIFTTYAMGWYRQAPGKERELVATITSSDSTNYADSVKGRFTISRDNAKNTVYLQMNSLKPEDTAVYYCNAGGDRTVSVAWYSADDYWGQGTQVTVSS	low polyreactivity
QVQLVESGGGLVQAGGSLRLSCAASGSIFTTYTMGWYRQAPGKERELVAAITSSSGSTYYADSVKGRFTISRDHAKNTVYLQMNSLKPEDTAVYYCNATYSAAVDYWGQGTQVTVSS	low polyreactivity
QVQLVESGGGLVQAGGSLRLSCAASGSIFTVYAMGWYRQAPGKERELVATITGSDGRTDYADSVKGRFTISRDNAKNTVYLQMNSLKPEDTAVYYCAAQVFKWKYRQSLWFDQGYYWGQGTQVTVSS	low polyreactivity
QVQLVESGGGLVQAGGSLRLSCAASGSIFTWYTMGWYRQAPGKERELVAAISWSGGRTYYADSVKGRFTISRDNAKHTVYLQMNSLKPEDTAVYYCAASAYGRPPFDYWGQGTQVTVSS	high polyreactivity
QVQLVESGGGLVQAGGSLRLSCAASGSIFTYNAMGWYRPAPGKERELVASITWSGGSTYYADSVKGRFTISRDNAKNTVSLQMNSLKPEDTAVYYCAAKRVHGATGYWGQGTQVTVSS	high polyreactivity
